According to PMC2532715:

Target: T1, SgrAI restriction endonuclease (UniProt Q9F6L0 1-338)
T1 sequence: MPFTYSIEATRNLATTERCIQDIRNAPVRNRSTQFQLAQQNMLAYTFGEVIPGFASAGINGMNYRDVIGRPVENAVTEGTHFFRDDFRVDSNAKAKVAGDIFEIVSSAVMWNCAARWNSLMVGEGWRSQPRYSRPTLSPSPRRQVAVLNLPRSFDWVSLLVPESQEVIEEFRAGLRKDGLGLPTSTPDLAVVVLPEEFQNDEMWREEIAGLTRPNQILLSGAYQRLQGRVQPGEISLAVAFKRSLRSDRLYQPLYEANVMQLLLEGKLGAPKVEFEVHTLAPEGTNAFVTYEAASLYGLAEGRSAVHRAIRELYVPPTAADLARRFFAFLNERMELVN
Assay: X-ray crystallography

B1: Cognate 18 (dsDNA)
DNA 1: GAGTCCACCGGTGGACTC
DNA 2: GAGTCCACCGGTGGACTC
**Q.** Does B1 bind?
**A.** Result: binds
